Measurements as given in the supplement of paper PMC12636428.

Test system: Saccharomyces cerevisiae
Experiment: transcriptional activation domain activity (GFP:mCherry ratio, weighted mean of sorted bins, harmonized to initial dataset scale) (arbitrary fluorescence ratio units); higher = stronger transcriptional activation
Conditions: beta-estradiol 1 µM; induction time 4 h
Procedure, shortened: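 Protein tiles carrying barcodes and fused to an estradiol-inducible synthetic transcription factor were placed at the URA3 locus of yeast diploids with a GFP reporter. Following 4 hours at 30 °C in SC with 1 uM beta-estradiol, cells were sorted into 8 GFP:mCherry bins, barcodes were sequenced, and tiles with fewer than 50 reads were discarded. Activation activity is given as the read-weighted mean of bin median fluorescence, averaged across barcodes and linearly mapped to the initial dataset scale.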

Sequence | transcriptional activation domain activity
MLCFLYHLVSMCTLLHCLYLLPVLFLIFYASFFLLLACTWSSVRCLISLFFCL | 57300
MSRVYNLFLKAFRYKLPSLYQHIHVILNLPPSMYLEAMFLTLFTLHCPIDVAS | 53400
VKKKGGSGGIDAGDIWGCNRRGSNFVEVRSMLAKEGGRLLVNVLRDMIDGTVR | 65900
FLSYFSGWLTVIAWQCLVASASYVSGTLLQGLLVLNYPTYVFERWQGTLLMYA | 57900
IVQLHLKIHGAWLGRIRCDHCPKFHIEKFCWAACGGPQGLRRIIEHYLKVLNW | 39000
QLMESVSELDLPPLTLDEPPQAIKFNLNLFNNDPSGQQQQQQQQQQNSTSSTI | 29000
ASSVRIIAIKYFLTIHRWLPIVFKRGFFSSLLNPVAQRQTELGLLILCMKLCC | 48800
FGESCAGVLPVTMYDNRLNRHSEHHGKNVYEKMVSGRYLGELVRWILVELLDR | 54500
MRLIYLPIIFCRLPSHGWTIWMPIIRALSLLVFSLIYLLFIGDLPALTLTIFF | 50900
AKGEAEPKAKAKGKGKAKAQAESEGEEEEEEEEEEEVKGKGKSRAKSKPKAKA | 53900
MFSWLYLSYFQPLWRAFISLFIFLRTLHQSSPSIFFISIILLFICFPLAMFAV | 19200
DRPRRDRADDKEATTPRSDAGSHKSRRRSRSRDDERRHSRRHRGGDGDFYRGG | 17700
SLRVDTSVTCCKLRSFSHIVTSYIEVLFLLKILREFLYADLFVHIWLALSLLA | 62700
HNTHKELSEQAVIDSFHVLCFSVGTIKNKPMIVYLVRQGPAIWLTMCTLNDLN | 27200
MLLYTFILIVHIHRDLGSIDFVWKARNETASLRQRYLAVNYQLLFGVIKYLWA | 33400
MYGLVFLLPLFCSLLLFLFCFCCLSPRPTWGLFVSIELFLQARDGLVNWLLAF | 50100
HLNGESSPQLVPHSHHQPHSDTDEEDWESIGAASLRNNSLAPNIDSVASSTNG | 45100
FFHVTVRVASQGCGLAFGIHGFENTDVFLAYLILGAEGYFTLVLCTFRFLVSW | 66200
LIFTSVHFLVFNIGDLLGRYLCLVPQLLLWDASKLLTLSLLRTFFIPLFLACN | 38500
MFLFLFLFVFLFVFLFLFLFLFLFLFLFLFMFPFLFPFLFPFPFPFPFPVLVL | 52700
ARLLPDTIHLYILVVASLVNTLCVLFLDCCFLLLFFLFFYFFYPFLLFLFASF | 41200

Sequence | transcriptional activation domain activity
MKILYCILCMLFFFLFLSFYIQKKILFSLTCVFTLPPLSLFLFFFLFIVQILC | 55700
YFLGIFMYFLYGESVIYYFKHVLLVDRILLPLATHHRFISFMLYLIGFVFFVG | 65800
VRDMPQADPGADRAFDASLESSMRKLLDGLAGTSWPAKTSVWVSKLRIACNHV | 61200
ILLANLECFPKEKIWDKTIVGGRCLDPIQVKLIWVYNAAVNLGLDVVILILPQ | 32200
SGKQGGRKSGSPHGRRPAIQGARRKGKQSSRKPTGKQTKQSPGKSGARKAFGK | 42400
PQHCLDLNFMMALLHTGYGMPLEREVKIAKKIKGNELGWCLGASLPLLSKESG | 84000
FFHVTIRCASQGCGIAFGILGFQNTNVFLAYLILGAEGYFTLVLCVFRFLISW | 73400
LVANDIIMGIALGSHIIENSELAATWVDTIFSTWSVDGLRRMIVWLMGWPGGL | 27800
GTLNAQVTICEYSSTGQPLNGQGGCYNLHPVFNWIHHCIMSIFLVFMIAWLPL | 78500
RLNFLLFCLSLFLSLYFFPFCLLFFLFSLSSFLFCLPSFLSLLSSFFFFFVSL | 57200
GNEREQREGRREKNGRGEKGKKEERRGRKKRGGGWKRVRRENQARKQGEKGEQ | 38100
MFIYVFRPCNCIHLFIICQFSLFLITLLLYLFDLFFQLPFLLCINLTFCVAMC | 64900
LILARRKGDDRFRRIFMFTMCRLLVTRNHNPDLRRLVTEYLLNVDRFMILLLG | 59000
CMIFGRWACGPALLAVIYAILGVGFAFALVVTRSFASKSYGDRLQFRLRHFFF | 39600
LTLFVHFVKLSGILGEVLRRIYSPKAKINGYRTKTMSQTVWSLQRMLNEWLTN | 53300
NLRVIELRFSLRFYRDVVFCRKLLRKHEVFVTIIKLLLCLLTLDIEGLKIKVG | 46500
VIITLICRYEMHSTRLRLRGMSILSFLVNYTGRSMCNIKTTGFLDMIFALRQV | 47100
DEGESAAPADSAAQAQHLDATKKGHYKLSSFISHKGPSVHCGHYVSHIKKGDQ | 51800
RKAEEEEEEEAEAKAEKKKPAHGVPFEGTSKSARARARKRAKKEAEAAAATPA | 17800
SKKRKIKGGKSRSSSSKSDSSSSSSSSEDGEEKDLSKGVGKRGAKRAKSDDSS | 19000
MLARFKWSMWRMSLVRALRASLNITLFFYFLFPPRYSYVFLFLFLSFFLFFFS | 32500

Sequence | transcriptional activation domain activity
SKRREIRKTKEARREGSERRDGEADSEEKAREGKGSKRRRRGTGRRAEEAAKG | 27400
GCLLPVTSCVFLAPFTLDFLWIPFLTHYLIILLCWYHLFSLRLLFCCSKSLPT | 57200
ASSASTGKGEEEEEDGEEKVRGKGKGQGQGQSQGQGQGQGQEAQERRDDEASA | 31700
LYFTCNERVGACPPSFEYIYDTFFASVTSQEFWRSLFDLEAFYMYLGWYAFCV | 65600
TRHARALEVIKFTKRILSVGGMKYRERMFWWCPIDSATVRAWMLWVLGSIPLV | 62900
NFFSCLSFLFLFIFLFIFLLFHFPYLFSFQFCLLPIFSHFSIDHQKPYPFPSF | 37700
RGTIRPGFLIYFFILFLWVFQIHCIMQIIVNRIALLHVSPTIVRRLKWGIFSI | 66300
HTKSTESLVQLDDADGSRLDKVSGSLIQSLLASLGAQHKLVADAALTFLTAGR | 43900
VEANTSANLHFDNVIPTVTNADIRKKRSNWDNMMTSGPVEDFWTINDDYGFLT | 141000
ETGSEWREGSSDGFRSVKTVLLGVWAEYGGLRRNEICDTLRRLTLSSLGKINP | 53800
MALPVIFLFFLHVNILLLCRRFLLVFFLLLVFFLLLVFFFLLLVFFLLLVFLL | 66200
MWGWNGKEIHFSFTEVFLKFLIWLVHSFLRSFLGFSNGFFLTFPLVGFFFSFL | 54800
VKPEAKAEHIKENTKPKPLGTKRANKAAEAPAPAAKKPVKKAAVPKKAAAAPA | 59600
FLLTVYHIELLRNKSGDCSFMLRYFMNQGVNNSSLSTCMEHVAEAVVSTFINE | 30600
ANLAFPDDNSTNIQLQPFSESQSQNKFDYDMFFRDSSKEGNNLFGEFLEDDDD | 92800
MCIFFKGQYPIYLAFVRPFASLFFRVPLFRLFFGIFCAWVLCFLFLLLLSFSC | 43600
TWHHSIYVPYSFVAAYDHPVCYLIHRFLPLYLTAITFRFHIMTYLLLVGLFSL | 45200
QLLLSRLVTWLIRLVCQDEGPLVLKKMCSTLATYFLRPTASWPQCIRHLICSF | 38800
FMNTNEINNNNNNNNNNKNNINNINNNNSNNFSATSFNLGTLDEFVNNGDLED | 11800
